{
  "source": "patent US20250263490A1",
  "about": "(VIB VZW, published 2025)",
  "molecules": {"B1": {"name": "1H74 (VHH)", "VHH": "QVQLQESGGGLVQPGGSLRLACAASGFTLEDYSIGWFRQAPGKEREGVSCISSSDHSTYYADSVKGRFTISRDNAQNTVYLHMNSLKPEDTAVYYCAGRYSSLARIETNWHDYNYWGQGTQVTVSS", "notes": "also called anti-CI-M6PR VHH 1H74"}, "B2": {"name": "humanized VHH8 variant VHH8 h4 (VHH)", "VHH": "DVQLVESGGGLVQPGGSLRLSCEASGRTFNTYNWGWFRQAPGKEREFVAAIRWSSSKTSYADSVKGRFTISRDNSKNTVYLQMNSLRPEDTAVYYCAASIVDFTTNPSHFGSWGQGTLVTVSS", "notes": "made in E. coli"}, "B3": {"name": "humanized VHH8 variant VHH8 h5 (VHH)", "VHH": "B2 VHH with P14A", "notes": "made in E. coli"}, "B4": {"name": "anti-CI-M6PR VHH 2H79 (VHH)", "VHH": "QVQLQESGGGQVQAGDSLGLSCAASGGAFSTYHMGWFRQAPGKQRELVAAITRGGSSSTKYVDSVKGRFTISRDNAKNTMYLQMNSLQPDDTAVYYCAASPQGKWNALVGGTPDYWGQGTQVTVSS"}, "B5": {"name": "anti-CI-M6PR VHH 1H37 (VHH)", "VHH": "QVQLQESGGGLVQPGGSLRLTCAPSGRTYSTYWMAWFRQAPGKEREIVARINWSDGSTFYTESVKGRFTISGDNAKNTVYLQMTNLKPEDTAVYYCLARTVVSLDDYWGQGTQVTVSS"}, "B6": {"name": "anti-CI-M6PR VHH 2H74 (VHH)", "VHH": "B5 VHH with P14A"}, "B7": {"name": "anti-CI-M6PR VHH 1H21 (VHH)", "VHH": "QVQLQESGGGLVQAGGSLRLSCVASGRTFSTLHMGWFHQAPGKERELVAAITRSGDTYYADFVKGRFTISRDNAKNTVYLQMISLKPEDTAVYYCAATGPGGWARLRAHEYDYWGQGTQVTVSS"}, "B8": {"name": "anti-CI-M6PR VHH 1H52 (VHH)", "VHH": "QVQLQESGGGLVQPGGSLRLSCTASGFTWDSYVIGWFRQAPGKGREGVSCLDVDDGSIYYHDSAKGRFSISRDNAKNTVYLQMNSLKPEDTAVYYCAAVNRASMRFRRCLQVLRYDYWGQGTQVTVSS", "notes": "made in E. coli WK6, His-tag purified"}},
  "key": {"[1]": {"target": "recombinant human domain 1-3His6 of the cation-independent mannose-6-phosphate receptor (human) (UniProt P11717)", "assay": "BLI exp 1, dissoc pH 6, bivalent model"}, "[2]": {"target": "human cation-independent mannose-6-phosphate receptor, native, on cells (human) (UniProt P11717)", "assay": "flow cytometry on HEK293T cells (sheet: HEK293 cell), titration of the anti-CI-M6PR 2G11 antibody (Abcam ab2733) [lower graph]"}, "[3]": {"target": "recombinant human domain 1-3His6 of the cation-independent mannose-6-phosphate receptor (human) (UniProt P11717)", "assay": "BLI exp 1, dissoc pH 7.4, bivalent model"}, "[4]": {"target": "recombinant human domain 1-3His6 of the cation-independent mannose-6-phosphate receptor (human) (UniProt P11717)", "assay": "BLI exp 2, dissoc pH 7, bivalent model"}, "[5]": {"target": "human cation-independent mannose-6-phosphate receptor, native, on cells (human) (UniProt P11717)", "assay": "flow cytometry on HepG2 cells, titration of the anti-CI-M6PR 2G11 antibody (Abcam ab2733) [lower graph]"}, "[6]": {"target": "recombinant human domain 1-3His6 of the cation-independent mannose-6-phosphate receptor (human) (UniProt P11717)", "assay": "BLI exp 2, dissoc pH 5, bivalent model"}, "[7]": {"target": "recombinant human domain 1-3His6 of the cation-independent mannose-6-phosphate receptor (human) (UniProt P11717)", "assay": "BLI exp 1, dissoc pH 7, bivalent model"}, "[8]": {"target": "recombinant human domain 1-3His6 of the cation-independent mannose-6-phosphate receptor (human) (UniProt P11717)", "assay": "BLI exp 2, dissoc pH 6, bivalent model"}, "[9]": {"target": "recombinant human domain 1-3His6 of the cation-independent mannose-6-phosphate receptor (human) (UniProt P11717)", "assay": "BLI at pH 7.4, bivalent model"}, "[10]": {"target": "recombinant human domain 1-3His6 of the cation-independent mannose-6-phosphate receptor (human) (UniProt P11717)", "assay": "BLI exp 2, dissoc pH 7.4, bivalent model"}, "[11]": {"target": "recombinant human domain 1-3His6 of the cation-independent mannose-6-phosphate receptor (human) (UniProt P11717)", "assay": "BLI exp 1, dissoc pH 5, bivalent model"}, "[12]": {"target": "T1, recombinant human domain 1-3His6 of the cation-independent mannose-6-phosphate receptor (human, UniProt P11717 41-467)", "T1 construct": "Biotinylated (NHS-PEG4-biotin) for BLI; Glycosylated; also called hDom1-3His6; hCI-M6PRD1-D3", "assay": "in-tandem competitive BLI, biotinylated hDom1-3His6 on SA sensors, purified VHH"}, "[13]": {"target": "T1, recombinant human domain 1-3His6 of the …", "assay": "in-tandem competitive BLI, 400 nM", "protocol": "(§1) FIGS. 50 & 51. In-tandem competitive BLI of purified anti-CI-M6PR VHHs. In-tandem competitive BLI was performed on an Octet Red96 (FortéBio) instrument in kinetics buffer (1×PBS, 1 mg/ml bovine serum albumin, 0.02% Tween-20 and 0.05% sodium azide). Human CI-M6PR domain₁₋₃His₆ (0.5 mg/mL in 50 mM MES, 150 mM NaCl, pH 6.5) was incubated for 30 minutes at room temperature with EZ-Link™ NHS-PEG4-Biotin (1 mg, Thermo Fischer A39259) and NaHCO₃ (100 mM). Biotinylated human domain₁₋₃His₆ was purified using a Zeba spin desalting Column™ (7K MWCO, 2 mL, Thermo Fischer 89890) and immobilized on Streptavidin SA biosensors (Sartorius) to a signal of 0.5 nm. […] Between assays, biosensors were regenerated by three times 10 s exposure to regeneration buffer (10 mM glycine pH 3). Data were double reference-subtracted and aligned in Octet Data Analysis software v9.0 (FortéBio). Greyscale curves represent double reference-subtracted data.\nFIG. 55. […] In-tandem competitive BLI was performed as described in FIG. 50."}, "[14]": {"target": "T1, recombinant human domain 1-3His6 of the …", "assay": "in-tandem competitive BLI, biotinylated hDom1-3His6 on SA sensors, periplasmic extract of E. coli (concentration not given)", "protocol": "as §1, with “In-tandem competitive BLI of purified anti-CI-M6PR VHHs.” left out"}, "[15]": {"target": "T1, recombinant human domain 1-3His6 of the …", "assay": "in-tandem competitive BLI, biotinylated hDom1-3His6 on SA sensors, purified VHH at 400 nM", "protocol": "as §1"}, "[16]": {"target": "T1, recombinant human domain 1-3His6 of the …", "assay": "BLI, global 1:1 fit, pH 7.4", "protocol": "(§2) FIGS. 58 & 59. […] BLI was performed on an Octet Red96 (FortéBio) instrument in kinetics buffer (0.2 M Na₂HPO₄, 0.1 M Na⁺ citrate, 0.01% bovine serum albumin, 0.002% Tween-20). Biotinylated human domain₁₋₃His₆ was immobilized on Streptavidin SA biosensors (Sartorius) to a signal of 0.6 nm. […] Between assays, biosensors were regenerated by three times 10 s exposure to regeneration buffer (10 mM glycine pH 3). The degree of association and dissociation was measured in δ nm over time (s).\n(§3) After loading, the tips were incubated with VHHs serially diluted in pH 7.4 kinetic buffer during the association phase and dissociation was performed at pH 7.4, pH 6.5, pH 6.0, pH 5.5 and pH 5.0. All biosensor tips were then regenerated before analysis of the subsequent VHH. Table 13 summarizes the kinetic parameters retrieved after processing and curve fitting of the BLI measurements. When both association and dissociation were performed at pH 7.4, a global fit was performed according to the 1:1 binding model of which the resulting affinity constants (KD), association (kₒₙ) and dissociation rate constants (koff) are shown. For measurements with association at pH 7.4 and dissociation at pH 6.5, 6.0, 5.5 and 5.0, the depicted dissociation rate constants are an average of the parameters determined by local curve fitting of the dissociation of 200, 100 and 50 nM VHH."}, "[17]": {"target": "T1, recombinant human domain 1-3His6 of the …", "assay": "BLI, dissoc pH 6.5, mean of local fits", "protocol": "as §2, §3"}, "[18]": {"target": "T1, recombinant human domain 1-3His6 of the …", "assay": "BLI, dissoc pH 5, mean of local fits", "protocol": "as §2, §3"}, "[19]": {"target": "T1, recombinant human domain 1-3His6 of the …", "assay": "BLI, dissoc pH 5.5, mean of local fits", "protocol": "as §2, §3"}, "[20]": {"target": "T1, recombinant human domain 1-3His6 of the …", "assay": "BLI, dissoc pH 6, mean of local fits", "protocol": "as §2, §3"}},
  "note": "Substitutions are numbered along the chain they refer to.",
  "data": [
    {"molecule": "anti-CI-M6PR antibody (clone 2G11)", "values": [
      {"measurement": "Kd", "setting": "[1]", "result": 2350, "unit": "nM"},
      {"measurement": "koff", "setting": "[1]", "result": 0.000479, "unit": "s⁻¹"},
      {"measurement": "kon", "setting": "[1]", "result": 204, "unit": "M⁻¹ s⁻¹"},
      {"measurement": "EC50 (read off the curve)", "setting": "[2]", "result": 0.2, "unit": "nM"},
      {"measurement": "Kd", "setting": "[3]", "result": 2760, "unit": "nM"},
      {"measurement": "koff", "setting": "[3]", "result": 0.000592, "unit": "s⁻¹"},
      {"measurement": "kon", "setting": "[3]", "result": 215, "unit": "M⁻¹ s⁻¹"},
      {"measurement": "koff", "setting": "[4]", "result": 0.00103, "unit": "s⁻¹"},
      {"measurement": "kon", "setting": "[4]", "result": 31100, "unit": "M⁻¹ s⁻¹"},
      {"measurement": "EC50 (read off the curve)", "setting": "[5]", "result": 0.6, "unit": "nM"},
      {"measurement": "koff", "setting": "[6]", "result": 0.000389, "unit": "s⁻¹"},
      {"measurement": "kon", "setting": "[6]", "result": 35900, "unit": "M⁻¹ s⁻¹"},
      {"measurement": "Kd", "setting": "[7]", "result": 4430, "unit": "nM"},
      {"measurement": "koff", "setting": "[7]", "result": 0.000712, "unit": "s⁻¹"},
      {"measurement": "kon", "setting": "[7]", "result": 161, "unit": "M⁻¹ s⁻¹"},
      {"measurement": "koff", "setting": "[8]", "result": 0.000534, "unit": "s⁻¹"},
      {"measurement": "kon", "setting": "[8]", "result": 42600, "unit": "M⁻¹ s⁻¹"},
      {"measurement": "Kd", "setting": "[9]", "result": 2760, "unit": "nM"},
      {"measurement": "koff", "setting": "[9]", "result": 0.000592, "unit": "s⁻¹"},
      {"measurement": "kon", "setting": "[9]", "result": 215, "unit": "M⁻¹ s⁻¹"},
      {"measurement": "Kd", "setting": "[10]", "result": 13.1, "unit": "nM"},
      {"measurement": "koff", "setting": "[10]", "result": 0.000794, "unit": "s⁻¹"},
      {"measurement": "kon", "setting": "[10]", "result": 60700, "unit": "M⁻¹ s⁻¹"},
      {"measurement": "Kd", "setting": "[11]", "result": 1510, "unit": "nM"},
      {"measurement": "koff", "setting": "[11]", "result": 0.000363, "unit": "s⁻¹"},
      {"measurement": "kon", "setting": "[11]", "result": 241, "unit": "M⁻¹ s⁻¹"}
    ]},
    {"molecule": "B1", "values": [
      {"measurement": "binding result", "setting": "[12]", "result": "no binding (tested: 400 nM)"}
    ]},
    {"molecule": "B2", "values": [
      {"measurement": "binding result", "setting": "[13]", "result": "binds"}
    ]},
    {"molecule": "B3", "values": [
      {"measurement": "binding result", "setting": "[13]", "result": "binds"}
    ]},
    {"molecule": "B4", "values": [
      {"measurement": "binding result", "setting": "[14]", "result": "binds"}
    ]},
    {"molecule": "B5", "values": [
      {"measurement": "binding result", "setting": "[15]", "result": "binds"}
    ]},
    {"molecule": "B6", "values": [
      {"measurement": "binding result", "setting": "[14]", "result": "binds"}
    ]},
    {"molecule": "B7", "values": [
      {"measurement": "binding result", "setting": "[15]", "result": "binds"}
    ]},
    {"molecule": "B8", "values": [
      {"measurement": "Kd", "setting": "[16]", "result": 31, "unit": "nM"},
      {"measurement": "koff", "setting": "[16]", "result": 0.032, "unit": "s⁻¹"},
      {"measurement": "kon", "setting": "[16]", "result": "1e+06", "unit": "M⁻¹ s⁻¹"},
      {"measurement": "koff", "setting": "[17]", "result": 0.067, "unit": "s⁻¹"},
      {"measurement": "koff", "setting": "[18]", "result": 0.2, "unit": "s⁻¹"},
      {"measurement": "koff", "setting": "[19]", "result": 0.051, "unit": "s⁻¹"},
      {"measurement": "koff", "setting": "[20]", "result": 0.03, "unit": "s⁻¹"}
    ]}
  ]
}
